Test results reported in PMC11701221, “WhiA transcription factor provides feedback loop between translation and energy production in a genome-reduced bacterium” (Frontiers in Microbiology, 2024).

Legend:
Mgal-WhiA [1] = target: T1, Mgal-WhiA (Mycoplasmoides gallisepticum, UniProt A0A0F6CKV5); assay: microscale thermophoresis, Cy5-labelled protein, Hill fit; assay type: binding
T1 construct: E. coli BL21-Gold (DE3); monomer without DNA; Cy5 NHS-ester labelled for ATP MST
T1 sequence (A0A0F6CKV5 1-295): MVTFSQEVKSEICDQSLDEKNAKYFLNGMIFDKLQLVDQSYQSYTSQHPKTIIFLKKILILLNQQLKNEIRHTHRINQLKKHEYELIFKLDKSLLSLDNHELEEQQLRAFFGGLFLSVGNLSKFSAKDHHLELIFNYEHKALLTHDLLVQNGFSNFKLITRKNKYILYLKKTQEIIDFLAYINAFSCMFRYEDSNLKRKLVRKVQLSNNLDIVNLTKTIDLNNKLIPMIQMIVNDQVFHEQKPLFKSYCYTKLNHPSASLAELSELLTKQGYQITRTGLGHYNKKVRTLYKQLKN

Mgal-WhiA [2] = target: T2, Mgal-WhiA (Mycoplasma gallisepticum S6, UniProt A0A0F6CKV5 1-295); assay: EMSA; no ATP; monomer complex; EMSA: 20 mM carbonate pH 9.8, 6% glycerol, 37 C 10 min, gel at 10 C; MST: PBS (10 mM Na phosphate pH 7.4, 140 mM NaCl, 3 mM KCl), 0.05% Tween-20, 50 mM imidazole, 50 nM duplex, 20 C; conditions: protein: recombinant; label: 5' FAM (EMSA) or HEX (MST) on strand 1; blunt
Mgal-WhiA [3] = target: T2, Mgal-WhiA; assay: MST; no ATP; Hill n = 1.8 ± 0.2; EMSA: 20 mM carbonate pH 9.8, 6% glycerol, 37 C 10 min, gel at 10 C; MST: PBS (10 mM Na phosphate pH 7.4, 140 mM NaCl, 3 mM KCl), 0.05% Tween-20, 50 mM imidazole, 50 nM duplex, 20 C; conditions: protein: recombinant; label: 5' FAM (EMSA) or HEX (MST) on strand 1; blunt
Mgal-WhiA [4] = target: T2, Mgal-WhiA; assay: MST; 1 mM ATP; n = 1; multistep curve; EMSA: 20 mM carbonate pH 9.8, 6% glycerol, 37 C 10 min, gel at 10 C; MST: PBS (10 mM Na phosphate pH 7.4, 140 mM NaCl, 3 mM KCl), 0.05% Tween-20, 50 mM imidazole, 50 nM duplex, 20 C; conditions: protein: recombinant; label: 5' FAM (EMSA) or HEX (MST) on strand 1; blunt
Mgal-WhiA Ser-258 = Mgal-WhiA Ser-258 (Mycoplasma gallisepticum S6, UniProt A0A0F6CKV5 1-295, S259G); assay: MST; EMSA: 20 mM carbonate pH 9.8, 6% glycerol, 37 C 10 min, gel at 10 C; MST: PBS (10 mM Na phosphate pH 7.4, 140 mM NaCl, 3 mM KCl), 0.05% Tween-20, 50 mM imidazole, 50 nM duplex, 20 C; conditions: protein: recombinant; label: 5' FAM (EMSA) or HEX (MST) on strand 1; blunt
Mgal-WhiA Lys-216 = Mgal-WhiA Lys-216 (Mycoplasma gallisepticum S6, UniProt A0A0F6CKV5 1-295, K217G); assay: as above; conditions: protein: recombinant; label: 5' FAM (EMSA) or HEX (MST) on strand 1; blunt
Mgal-WhiA Lys-170 = Mgal-WhiA Lys-170 (Mycoplasma gallisepticum S6, UniProt A0A0F6CKV5 1-295, K171G); assay: EMSA; dimeric complex favoured; EMSA: 20 mM carbonate pH 9.8, 6% glycerol, 37 C 10 min, gel at 10 C; MST: PBS (10 mM Na phosphate pH 7.4, 140 mM NaCl, 3 mM KCl), 0.05% Tween-20, 50 mM imidazole, 50 nM duplex, 20 C; conditions: protein: recombinant; label: 5' FAM (EMSA) or HEX (MST) on strand 1; blunt
Mgal-WhiA [5] = target: T2, Mgal-WhiA; assay: EMSA; 1 mM ATP; monomer complex; EMSA: 20 mM carbonate pH 9.8, 6% glycerol, 37 C 10 min, gel at 10 C; MST: PBS (10 mM Na phosphate pH 7.4, 140 mM NaCl, 3 mM KCl), 0.05% Tween-20, 50 mM imidazole, 50 nM duplex, 20 C; conditions: protein: recombinant; label: 5' FAM (EMSA) or HEX (MST) on strand 1; blunt
Mgal-WhiA [6] = target: T2, Mgal-WhiA; assay: EMSA; no ATP; total binding; EMSA: 20 mM carbonate pH 9.8, 6% glycerol, 37 C 10 min, gel at 10 C; MST: PBS (10 mM Na phosphate pH 7.4, 140 mM NaCl, 3 mM KCl), 0.05% Tween-20, 50 mM imidazole, 50 nM duplex, 20 C; conditions: protein: recombinant, blunt
Mgal-WhiA [7] = target: T2, Mgal-WhiA; assay: EMSA; 1 mM ATP; total binding; unit not printed (nM implied); EMSA: 20 mM carbonate pH 9.8, 6% glycerol, 37 C 10 min, gel at 10 C; MST: PBS (10 mM Na phosphate pH 7.4, 140 mM NaCl, 3 mM KCl), 0.05% Tween-20, 50 mM imidazole, 50 nM duplex, 20 C; conditions: protein: recombinant, blunt
Mgal-WhiA [8] = target: T2, Mgal-WhiA; assay: EMSA; monomer complex; printed as without ATP, order probably swapped (1 mM ATP likely); EMSA: 20 mM carbonate pH 9.8, 6% glycerol, 37 C 10 min, gel at 10 C; MST: PBS (10 mM Na phosphate pH 7.4, 140 mM NaCl, 3 mM KCl), 0.05% Tween-20, 50 mM imidazole, 50 nM duplex, 20 C; conditions: protein: recombinant; label: 5' FAM on strand 1; blunt
Mgal-WhiA [9] = target: T2, Mgal-WhiA; assay: EMSA; monomer complex; printed as with ATP, order probably swapped (no ATP likely); EMSA: 20 mM carbonate pH 9.8, 6% glycerol, 37 C 10 min, gel at 10 C; MST: PBS (10 mM Na phosphate pH 7.4, 140 mM NaCl, 3 mM KCl), 0.05% Tween-20, 50 mM imidazole, 50 nM duplex, 20 C; conditions: protein: recombinant; label: 5' FAM on strand 1; blunt
Mgal-WhiA [10] = target: T2, Mgal-WhiA; assay: MST; 1 mM ATP; multistep curve, conflicts with EMSA; EMSA: 20 mM carbonate pH 9.8, 6% glycerol, 37 C 10 min, gel at 10 C; MST: PBS (10 mM Na phosphate pH 7.4, 140 mM NaCl, 3 mM KCl), 0.05% Tween-20, 50 mM imidazole, 50 nM duplex, 20 C; conditions: protein: recombinant; label: 5' FAM (EMSA) or HEX (MST) on strand 1; blunt
Mgal-WhiA [11] = target: T2, Mgal-WhiA; assay: FRET; with Q3 core duplex; strong quenching; EMSA: 20 mM carbonate pH 9.8, 6% glycerol, 37 C 10 min, gel at 10 C; MST: PBS (10 mM Na phosphate pH 7.4, 140 mM NaCl, 3 mM KCl), 0.05% Tween-20, 50 mM imidazole, 50 nM duplex, 20 C; conditions: protein: recombinant; label: 5' 6-FAM on strand 1; blunt
[12] = label: 5' FAM (EMSA) or HEX (MST) on strand 1

Molecule: Nc1ncnc2c1ncn2[C@@H]1O[C@H](COP(=O)(O)OP(=O)(O)OP(=O)(O)O)[C@@H](O)[C@H]1O [ATP]
- Kd (Mgal-WhiA [1]): 5 ± 0.1 mM

B1: rpsJ WT (dsDNA)
DNA 1: AAAGATTGCTGATACACCAAAAACCGTTGTCAAGTATCAG
DNA 2: CTGATACTTGACAACGGTTTTTGGTGTATCAGCAATCTTT
- Kd (Mgal-WhiA [2]): 610 ± 100 nM
- Kd (Mgal-WhiA [3]): 700 ± 100 nM
- Kd (Mgal-WhiA [4]): 88 ± 12 nM
- Kd (Mgal-WhiA Ser-258): 2600 ± 200 nM
- Kd (Mgal-WhiA Lys-216): 1700 ± 100 nM
- binding result (Mgal-WhiA Lys-170): binds
- Kd (Mgal-WhiA [5]): 240 ± 70 nM
- Kd (Mgal-WhiA [6]; [12]): 700 ± 80 nM
- Kd (Mgal-WhiA [7]; [12]): 680 ± 90 nM

B2: Mut1 (dsDNA)
DNA 1: AAAGATTGCTGATACACCAAAAACCAGACTCAAGTATCAG
DNA 2: CTGATACTTGAGTCTGGTTTTTGGTGTATCAGCAATCTTT
- Kd (Mgal-WhiA [8]): 290 ± 180 nM
- Kd (Mgal-WhiA [9]): 850 ± 130 nM
- Kd (Mgal-WhiA [6]; label: 5' FAM on strand 1): 750 ± 30 nM
- Kd (Mgal-WhiA [7]; label: 5' FAM on strand 1): 430 ± 90 nM

B3: Negative control (plsC promoter) (dsDNA)
DNA 1: AGCGATAAGTTTTACGAATTAAGTCGTTTATTATATAATA
DNA 2: TATTATATAATAAACGACTTAATTCGTAAAACTTATCGCT
- Kd (Mgal-WhiA [10]): 120 ± 50 nM

B4: WhiA-F1 (aux half-site) (dsDNA)
DNA 1: AACCGTTGTCAAGTATC
DNA 2: GATACTTGACAACGGTT
- binding result (Mgal-WhiA [11]): binds
